T1: BH-H2 (Sino Biological, Cat #11559-H08H) (UniProt O75144 19-258)
T1 sequence (looked up): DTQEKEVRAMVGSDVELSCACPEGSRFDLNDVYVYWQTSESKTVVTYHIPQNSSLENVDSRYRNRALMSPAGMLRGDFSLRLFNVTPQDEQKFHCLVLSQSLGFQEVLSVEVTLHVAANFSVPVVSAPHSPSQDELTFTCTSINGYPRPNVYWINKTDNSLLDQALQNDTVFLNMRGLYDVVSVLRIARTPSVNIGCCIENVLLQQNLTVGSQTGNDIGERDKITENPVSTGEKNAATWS

T2: CD86 (Sino Biological, Cat #10699-H08H) (UniProt P42081 24-245)
T2 sequence (looked up): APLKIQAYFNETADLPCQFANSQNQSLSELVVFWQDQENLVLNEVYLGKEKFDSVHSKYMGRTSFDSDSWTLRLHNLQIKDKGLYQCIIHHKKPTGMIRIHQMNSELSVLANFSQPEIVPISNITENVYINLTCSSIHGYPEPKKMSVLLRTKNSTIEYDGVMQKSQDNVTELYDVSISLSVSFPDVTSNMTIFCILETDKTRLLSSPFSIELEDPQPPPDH

T3: B7-H3 (Sino Biological, Cat #11188-H08H) (UniProt Q5ZPR3 29-461)
T3 sequence (looked up): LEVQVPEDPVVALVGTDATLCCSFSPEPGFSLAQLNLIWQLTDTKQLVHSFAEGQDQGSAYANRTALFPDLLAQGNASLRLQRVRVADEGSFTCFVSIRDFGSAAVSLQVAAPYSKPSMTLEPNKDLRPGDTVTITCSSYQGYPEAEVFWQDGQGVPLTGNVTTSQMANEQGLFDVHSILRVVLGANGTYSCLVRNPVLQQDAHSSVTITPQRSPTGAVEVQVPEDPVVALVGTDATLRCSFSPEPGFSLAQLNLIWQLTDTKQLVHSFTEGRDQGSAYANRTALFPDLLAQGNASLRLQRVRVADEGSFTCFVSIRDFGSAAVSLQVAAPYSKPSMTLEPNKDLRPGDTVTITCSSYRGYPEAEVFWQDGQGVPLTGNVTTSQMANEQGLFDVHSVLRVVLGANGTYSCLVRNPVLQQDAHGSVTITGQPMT

T4: canine PD-L1 (Acro Biosystems, Cat #PDL-C52H4) (canine, UniProt E2RKZ5 19-236)
T4 construct: not shown: The vendor's tag, probably a polyhistidine tag
T4 sequence: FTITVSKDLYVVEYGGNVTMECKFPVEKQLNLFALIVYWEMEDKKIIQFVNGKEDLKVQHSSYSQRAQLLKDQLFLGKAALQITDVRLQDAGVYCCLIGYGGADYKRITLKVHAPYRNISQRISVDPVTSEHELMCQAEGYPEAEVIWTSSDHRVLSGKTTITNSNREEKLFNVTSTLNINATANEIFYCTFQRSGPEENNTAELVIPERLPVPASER

T5: CD80 (Sino Biological, Cat #10698-H08H) (UniProt P33681 35-242)
T5 sequence (looked up): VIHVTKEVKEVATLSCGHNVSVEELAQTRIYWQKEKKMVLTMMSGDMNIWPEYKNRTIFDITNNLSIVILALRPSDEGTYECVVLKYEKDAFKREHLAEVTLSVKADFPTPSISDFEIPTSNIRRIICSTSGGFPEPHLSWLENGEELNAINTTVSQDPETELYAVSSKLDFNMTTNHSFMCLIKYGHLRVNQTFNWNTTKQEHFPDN

B1: 69D10 (antibody, human IgG1, V domains shown)
VH: QEQLEESGGGLVQPEGSLTLTCTASGFSFSGDWYMSWVRQAPGKGLEWIASIYSGSLNTYYATWAKGRFTVSLTSSTTVTLQMTSLTAADTATYFCARRNKNADYGHFDLWGPGTLVTVSS
VL: YDMTQTPASVEVAVGGTVTIKCQASQSIGNALAWYQQKPGQPPKLLIYATSTLASGVPSRFKGSGSGTEFTLTISDLECGDAATYYCQQGWTVSSLDNAFGGGTEVVAK
B2: 73C8 (antibody, human IgG1, V domains shown)
VH: B1 VH with A24V, W33Y, I49V, S54T, V71I
VL: B1 VL with G29N, N30D, A31R, T50A, K62R, E69D, G80A, K109M
B3: 28B3 (antibody, human IgG1, V domains shown)
VH: QSVEESGGRLVTPGTPLTLSCTASGFSLSSYYMIWVRQAPGKGLEYIGYVYTGSGNTWYASWAKGRFAISKASTTVDLMITSPTTEDTATYFCASGADGVYDWGWDIWGPGTLVTVSL
VL: DIVMTQTPASVEAAVGDTVTIKCQASQSIYSLLAWYQQKPGQRPKLLIAGASNLESGVPSRFSGSGSGTEYTLTISALECADAATYYCQNNYDSGRIYGLAFGGGTEVVVK
B4: 74A9 (antibody, human IgG1, V domains shown)
VH: QSVEESGGRLVTPGTPLTLTCAVSGFSLSTYALGWVRQAPGKGLEWIGSISIGGATYYASWAKGRFTISKTSTTVDLKIASPTTEDTATYFCARNVDSIYLDAFHTWGPGTLVTVSL
VL: DIVMTQTPASVEAAVGGTVTIKCQASQNIYNNLAWYQQKPGQPPKLLIYRASTLASGVPSRFKGSGSGTEYTLTISDLECDDAATYYCQTYYLTTTTNAFGGGTEVVVK

Changes are numbered by the printed parent chain.

T7 sequence (Q9NZQ7 19-290 limits assumed): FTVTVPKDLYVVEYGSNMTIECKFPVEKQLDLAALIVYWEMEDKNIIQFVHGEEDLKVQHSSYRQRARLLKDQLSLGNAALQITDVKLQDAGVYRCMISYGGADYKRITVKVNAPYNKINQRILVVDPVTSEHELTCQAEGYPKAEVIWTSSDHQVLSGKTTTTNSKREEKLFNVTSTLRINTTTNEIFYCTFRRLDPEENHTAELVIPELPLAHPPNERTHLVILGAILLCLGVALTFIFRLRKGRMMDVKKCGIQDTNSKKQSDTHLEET

For the first test, the target named is T6, cynomolgus PD-L1-His (Sino Biological, Cat. 90251-C08H) (cynomolgus, UniProt Q9NZQ7 19-238 (human entry)).
T6 construct: Bought protein; also called Cyno PD-L1; Cynomolgus PD-L1 ECD-His; not shown: His tag
T6 sequence (Q9NZQ7 other isoform, or with tags, fused parts or gaps C08H C08H limits assumed): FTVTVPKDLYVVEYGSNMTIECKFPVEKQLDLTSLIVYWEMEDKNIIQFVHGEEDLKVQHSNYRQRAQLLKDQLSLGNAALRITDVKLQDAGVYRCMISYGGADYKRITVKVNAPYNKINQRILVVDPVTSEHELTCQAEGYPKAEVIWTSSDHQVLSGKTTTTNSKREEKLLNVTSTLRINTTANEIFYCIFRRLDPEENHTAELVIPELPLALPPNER
Description: ELISA, coated cyno PD-L1-His. The procedure:
Briefly, Maxisorp plates (Nunc) were coated with 100 ul/well of 0.5 μg/ml human PD-L1-His (Sino Biological, Cat #10084-H08H) or cynomolgus PD-L1-His (Sino Biological, Cat. 90251-C08H) protein diluted in 1×PBS (GIBCO) overnight at 4° C. Plates were washed three times with 300 μl/well washing buffer (1×PBST, diluted from 20×PBST (Thermo Scientific) with distilled water)) and then blocked with 300 μl/well of blocking buffer (1×PBST/I % BSA) for 2 hours at RT on shaker (100 rpm). Plates were washed and added with 100 μl/well of testing antibodies, which were serial diluted with assay buffer (PBST/1% BSA). The antibodies were incubated at room temperature for 2 hours on plate shaker at 100 rpm. Plates were washed. One hundred microliter of horseradish peroxidase (HRP) conjugated detection antibody was added into each well and incubated at room temperature for 1 hour on plate shaker at 100 rpm. Plates were washed and added with 100 μl/well TMB substrate for color development at room temperature in dark for up to 10 minutes. After addition of 50 μl/well of stop solution (1N H₂SO₄), plates were read at 450 nm on a plate reader (SpectraMax M5).
(§1) Anti-HEL isotype control (Biolntron) was used as negative control.
(ELISA stands for enzyme-linked immunosorbent assay.)
What is called EC50 is the concentration at which the effect is half-maximal. Higher therefore signals a need for much substance. In turn, B1 displayed an EC50 of 0.0177 nM.

With B2, the EC50 is 0.0121 nM.

As for B3, the EC50 worked out at 0.0177 nM.

In the case of B4, the EC50 was found to be 0.0198 nM.

Another test concerns the target T7, human PD-L1 expressed on cell surface (human, UniProt Q9NZQ7 19-290).
T7 construct: also called cell surface PD-L1
In words: flow cytometry, MDA-MB-231-GFP cells. The procedure: Cells were then resuspended in FACS buffer (1×DPBS/1% FBS) at 10⁶/ml concentration. One hundred microliter (100 μl) of cells were aliquoted into a single well in 96 well plates. The antibodies to be tested were serially diluted at 1:3 fold starting at 15 ug/mL and were then added into each well. The antibodies were mixed with cells and the mixtures were incubated on ice for 1 hour. […] After washing with FACS buffer, stained cells were resuspended at diluted […] (Biolegend, Cat #420404, used at 1:100 dilution) and analyzed on Guava 11HT (Luminex). Data was analyzed using Flowjo software.
as §1
Background: A flow cytometer gives signals particle by particle.
In turn, B1 yielded an EC50 of 2 nM.

For B2, the EC50 is 1.81 nM.

Consider B3, for which a half-maximal response (EC50) required 0.1 nM.

As for B4, the EC50 turned out to be 0.34 nM.

In a further test the target is T8, rat PD-L1 (Sino Biological, Cat #80450-R08H) (rat, UniProt D4AE25 19-239).
T8 construct: not shown: The vendor's polyhistidine tag
T8 sequence (D4AE25 entry or part of it R08H R08H limits assumed): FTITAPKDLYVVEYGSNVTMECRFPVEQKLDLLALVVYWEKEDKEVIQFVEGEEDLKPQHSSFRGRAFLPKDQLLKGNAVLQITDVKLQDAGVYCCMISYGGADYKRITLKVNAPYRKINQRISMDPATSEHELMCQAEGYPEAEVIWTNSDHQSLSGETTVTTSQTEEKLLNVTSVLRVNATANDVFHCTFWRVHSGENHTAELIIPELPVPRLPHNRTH
In words: ELISA.
With B1, the binding result is listed as “no binding”.

Turning to B2, the binding result is on record as “no binding”.

Take B3: the binding result is “no binding”.

B4: the binding result was “no binding”.

A further test addresses T1, BH-H2 (Sino Biological, Cat #11559-H08H). Description: ELISA.
For the molecule B1, the binding result is “no binding”.

B2: the binding result is reported as “no binding”.

With B3, the binding result is recorded as “no binding”.

Take B4: the binding result is on record as “no binding”.

In another test the target is T2, CD86 (Sino Biological, Cat #10699-H08H). In words: ELISA.
As for B1, the binding result is recorded as “no binding”.

For B2, the binding result is listed as “no binding”.

In the case of B3, the binding result is reported as “no binding”.

With B4, the binding result was “no binding”.

Another test deals with mouse PD-L1 (Sino Biological, Cat #50010-M08H) (mouse, UniProt Q9EP73 19-238). In words: ELISA.
Chain of mouse PD-L1 (Sino Biological, Cat #50010-M08H) (Q9EP73 19-238 limits assumed, stated change not applied): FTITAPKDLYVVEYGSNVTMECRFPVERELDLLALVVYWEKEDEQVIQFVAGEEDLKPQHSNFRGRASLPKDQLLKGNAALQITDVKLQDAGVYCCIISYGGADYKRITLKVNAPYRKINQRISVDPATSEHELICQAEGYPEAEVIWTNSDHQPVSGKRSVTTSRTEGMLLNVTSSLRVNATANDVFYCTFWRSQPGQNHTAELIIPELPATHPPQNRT
Turning to B1, the binding result is recorded as “no binding”.

For B2, the binding result is recorded as “no binding”.

As to B3, the binding result is given as “no binding”.

As for B4, the binding result is “no binding”.

The target of a further test is T3, B7-H3 (Sino Biological, Cat #11188-H08H). Description: ELISA.
As for B1, the binding result was “no binding”.

As for B2, the binding result is given as “no binding”.

Take B3: the binding result was “no binding”.

Regarding B4, the binding result is listed as “no binding”.

For a further test, the target named is T4, canine PD-L1 (Acro Biosystems, Cat …). In words: ELISA.
B1: the binding result was “no binding”.

Regarding B2, the binding result is reported as “no binding”.

Consider B3, for which the binding result is on record as “no binding”.

For the molecule B4, the binding result is reported as “no binding”.

The next test deals with T5, CD80 (Sino Biological, Cat #10698-H08H). Description: ELISA.
Consider B1, for which the binding result is listed as “no binding”.

B2: the binding result was “no binding”.

On to B3, for which the binding result is reported as “no binding”.

Regarding B4, the binding result was “no binding”.

The next test addresses T7, human PD-L1 expressed on cell surface. Description: cell-based or functional assay.
Consider B1, for which the “Internalization (%), FACS, 0.25 µg/ml, 2 h” value stood at 18.2%; the “Internalization (%), FACS, 0.25 µg/ml, 4 h” value amounted to 15.9%; the “Internalization (%), FACS, 0.5 µg/ml, 2 h” value is 16.2%; the “Internalization (%), FACS, 0.5 µg/ml, 4 h” value turned out to be 18%. Further, the “Internalization (%), FACS, 1 µg/ml, 2 h” value was found to be 15.9%; the “Internalization (%), FACS, 1 µg/ml, 4 h” value was determined as 18.2%; the “Internalization (%), FACS, 2 µg/ml, 2 h” value was 17.7%; the “Internalization (%), FACS, 2 µg/ml, 4 h” value is 21.2%.

For the molecule B2, the “Internalization (%), FACS, 0.25 µg/ml, 2 h” value turned out to be 22%; the “Internalization (%), FACS, 0.25 µg/ml, 4 h” value came to 15.6%; the “Internalization (%), FACS, 0.5 µg/ml, 2 h” value came to 17.8%; the “Internalization (%), FACS, 0.5 µg/ml, 4 h” value was found to be 23%. Moreover, the “Internalization (%), FACS, 1 µg/ml, 2 h” value came to 19.5%; the “Internalization (%), FACS, 1 µg/ml, 4 h” value was 15.7%; the “Internalization (%), FACS, 2 µg/ml, 2 h” value was determined as 22.5%; the “Internalization (%), FACS, 2 µg/ml, 4 h” value was found to be 21.7%.

Consider B3, for which the “Internalization (%), FACS, 0.25 µg/ml, 2 h” value was 20.4%; the “Internalization (%), FACS, 0.25 µg/ml, 4 h” value was 17.6%; the “Internalization (%), FACS, 0.5 µg/ml, 2 h” value is 12%; the “Internalization (%), FACS, 0.5 µg/ml, 4 h” value was found to be 19.9%. In addition, the “Internalization (%), FACS, 1 µg/ml, 2 h” value was 15.3%; the “Internalization (%), FACS, 1 µg/ml, 4 h” value came out at 15.5%; the “Internalization (%), FACS, 2 µg/ml, 2 h” value was found to be 8.3%; the “Internalization (%), FACS, 2 µg/ml, 4 h” value was found to be 6%.

For the molecule B4, the “Internalization (%), FACS, 0.25 µg/ml, 2 h” value came out at 11.5%; the “Internalization (%), FACS, 0.25 µg/ml, 4 h” value came to 11%; the “Internalization (%), FACS, 0.5 µg/ml, 2 h” value is 13.2%; the “Internalization (%), FACS, 0.5 µg/ml, 4 h” value came out at 12%. For the same molecule, the “Internalization (%), FACS, 1 µg/ml, 2 h” value was found to be 17.7%; the “Internalization (%), FACS, 1 µg/ml, 4 h” value turned out to be 9.2%; the “Internalization (%), FACS, 2 µg/ml, 2 h” value was 13.9%; the “Internalization (%), FACS, 2 µg/ml, 4 h” value turned out to be 11.7%.

Source of the values: patent publication US20250171542A1 (ADEPT THERAPEUTICS, published 2025).
